Reference: patent US20020159976A1

Tests used:
[1] = molecular target: bovine serum albumin (bovine) (UniProt P02769); assay: dot blot, ~1 ug ligand on nitrocellulose, 125I-labelled binder, autoradiograph density divided by Ponceau S density, mean of two dots
[2] = molecular target: fibronectin from human plasma (human) (UniProt P02751); assay: as above
[3] = molecular target: laminin from the basement membrane of Engelbreth-Holm-Swarm mouse sarcoma (mouse) (UniProt P19137); assay: as above
[4] = molecular target: type I collagen from calf skin (calf) (UniProt P02453); assay: as above
[5] = molecular target: type III mucin partially purified from porcine stomach (porcine); assay: as above
[6] = molecular target: type IV collagen from human placenta (human) (UniProt P02462); assay: as above
[7] = molecular target: T1, casein peptide αs1-casein(1-17) (UniProt P02662)
T1 sequence: RPKHPIKHQGLPQEVLN

Sequence of UniProt P02462 (P02462 173-1440, chain 1 of 2): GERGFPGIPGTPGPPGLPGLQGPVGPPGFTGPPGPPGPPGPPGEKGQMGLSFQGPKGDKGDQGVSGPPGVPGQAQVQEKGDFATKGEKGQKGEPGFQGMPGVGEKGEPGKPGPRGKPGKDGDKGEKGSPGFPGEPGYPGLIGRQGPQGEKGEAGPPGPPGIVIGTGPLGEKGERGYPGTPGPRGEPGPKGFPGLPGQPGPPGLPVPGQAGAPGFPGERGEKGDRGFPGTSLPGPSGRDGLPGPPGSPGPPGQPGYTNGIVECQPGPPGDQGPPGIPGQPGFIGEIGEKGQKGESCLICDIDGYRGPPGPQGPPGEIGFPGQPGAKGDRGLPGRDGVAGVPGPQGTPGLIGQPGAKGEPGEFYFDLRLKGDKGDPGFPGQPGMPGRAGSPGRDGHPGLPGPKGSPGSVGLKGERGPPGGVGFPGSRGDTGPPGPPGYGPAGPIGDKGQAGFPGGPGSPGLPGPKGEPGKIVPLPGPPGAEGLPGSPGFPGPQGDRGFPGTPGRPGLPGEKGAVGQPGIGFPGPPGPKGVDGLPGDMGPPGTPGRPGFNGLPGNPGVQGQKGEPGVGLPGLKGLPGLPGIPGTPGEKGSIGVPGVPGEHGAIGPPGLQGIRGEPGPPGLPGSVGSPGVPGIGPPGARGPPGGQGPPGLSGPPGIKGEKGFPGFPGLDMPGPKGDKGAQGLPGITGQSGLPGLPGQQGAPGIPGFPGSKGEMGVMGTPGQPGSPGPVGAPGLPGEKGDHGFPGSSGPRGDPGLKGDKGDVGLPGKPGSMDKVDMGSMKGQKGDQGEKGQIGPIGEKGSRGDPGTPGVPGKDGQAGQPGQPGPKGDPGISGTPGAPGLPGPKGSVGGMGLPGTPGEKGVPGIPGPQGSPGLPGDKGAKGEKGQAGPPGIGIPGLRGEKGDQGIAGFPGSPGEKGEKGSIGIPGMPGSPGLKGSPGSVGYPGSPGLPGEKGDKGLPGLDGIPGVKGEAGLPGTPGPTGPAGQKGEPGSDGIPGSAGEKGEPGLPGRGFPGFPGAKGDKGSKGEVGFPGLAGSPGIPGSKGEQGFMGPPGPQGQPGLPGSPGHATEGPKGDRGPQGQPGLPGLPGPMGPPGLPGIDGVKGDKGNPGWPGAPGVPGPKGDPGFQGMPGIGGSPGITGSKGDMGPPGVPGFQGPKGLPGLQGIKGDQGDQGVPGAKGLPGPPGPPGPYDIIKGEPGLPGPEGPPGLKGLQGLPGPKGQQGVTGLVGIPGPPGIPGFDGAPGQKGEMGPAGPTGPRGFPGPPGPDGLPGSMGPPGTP
Sequence of UniProt P02462 (P08572 184-1484, chain 2 of 2, further chain): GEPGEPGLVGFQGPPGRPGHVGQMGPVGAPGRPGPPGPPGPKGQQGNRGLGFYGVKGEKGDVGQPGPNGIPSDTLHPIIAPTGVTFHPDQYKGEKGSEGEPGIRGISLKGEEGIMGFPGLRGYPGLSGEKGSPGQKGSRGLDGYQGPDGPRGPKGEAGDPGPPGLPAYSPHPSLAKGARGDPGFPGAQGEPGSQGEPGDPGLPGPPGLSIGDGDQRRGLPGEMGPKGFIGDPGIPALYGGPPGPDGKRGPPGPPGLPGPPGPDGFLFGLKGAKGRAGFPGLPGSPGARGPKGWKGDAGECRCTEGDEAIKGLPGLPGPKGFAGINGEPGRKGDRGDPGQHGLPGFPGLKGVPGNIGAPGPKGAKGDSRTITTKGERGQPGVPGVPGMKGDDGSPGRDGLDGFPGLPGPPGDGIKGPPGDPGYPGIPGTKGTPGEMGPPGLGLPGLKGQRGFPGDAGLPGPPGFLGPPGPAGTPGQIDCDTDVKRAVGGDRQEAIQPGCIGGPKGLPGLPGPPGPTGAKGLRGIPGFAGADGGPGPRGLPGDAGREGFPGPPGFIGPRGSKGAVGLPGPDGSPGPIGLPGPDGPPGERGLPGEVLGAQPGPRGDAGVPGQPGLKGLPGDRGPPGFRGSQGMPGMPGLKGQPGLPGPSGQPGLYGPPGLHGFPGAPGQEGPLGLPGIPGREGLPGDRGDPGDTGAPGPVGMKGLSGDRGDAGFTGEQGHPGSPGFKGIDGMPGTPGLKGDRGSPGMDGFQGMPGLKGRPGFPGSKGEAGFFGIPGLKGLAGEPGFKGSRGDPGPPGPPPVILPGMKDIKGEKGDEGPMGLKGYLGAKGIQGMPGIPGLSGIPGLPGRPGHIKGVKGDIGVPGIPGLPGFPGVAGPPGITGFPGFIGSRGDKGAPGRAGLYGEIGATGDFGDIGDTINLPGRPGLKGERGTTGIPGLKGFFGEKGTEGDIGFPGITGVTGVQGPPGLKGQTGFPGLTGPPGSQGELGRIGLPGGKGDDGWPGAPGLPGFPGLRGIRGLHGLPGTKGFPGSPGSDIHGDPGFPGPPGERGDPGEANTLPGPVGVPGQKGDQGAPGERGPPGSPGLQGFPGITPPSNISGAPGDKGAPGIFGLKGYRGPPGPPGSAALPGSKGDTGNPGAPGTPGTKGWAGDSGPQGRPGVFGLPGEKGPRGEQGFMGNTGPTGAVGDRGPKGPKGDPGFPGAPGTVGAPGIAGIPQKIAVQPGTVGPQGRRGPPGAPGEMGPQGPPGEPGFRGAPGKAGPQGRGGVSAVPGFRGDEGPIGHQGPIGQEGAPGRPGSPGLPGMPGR
Sequence of UniProt P02769 (P02769 25-607 limits assumed): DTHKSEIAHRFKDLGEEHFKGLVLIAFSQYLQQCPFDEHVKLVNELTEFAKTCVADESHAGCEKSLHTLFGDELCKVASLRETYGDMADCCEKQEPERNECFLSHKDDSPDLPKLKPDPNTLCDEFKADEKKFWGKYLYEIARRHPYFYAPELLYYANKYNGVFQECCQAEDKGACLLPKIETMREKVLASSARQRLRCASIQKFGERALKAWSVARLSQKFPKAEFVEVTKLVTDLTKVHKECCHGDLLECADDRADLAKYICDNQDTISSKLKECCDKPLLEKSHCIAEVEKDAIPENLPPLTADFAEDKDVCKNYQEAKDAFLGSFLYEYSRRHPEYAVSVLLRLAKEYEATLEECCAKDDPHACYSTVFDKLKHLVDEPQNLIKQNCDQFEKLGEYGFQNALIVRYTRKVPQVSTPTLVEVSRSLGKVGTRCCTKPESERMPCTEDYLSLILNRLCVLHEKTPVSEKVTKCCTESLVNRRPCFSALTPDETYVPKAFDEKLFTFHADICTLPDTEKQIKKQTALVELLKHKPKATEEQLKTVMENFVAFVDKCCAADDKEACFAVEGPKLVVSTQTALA

Row | Relative mapA Binding (relative density) [1] | Relative mapA Binding (relative density) [2] | Relative mapA Binding (relative density) [3] | Relative mapA Binding (relative density) [4] | Relative mapA Binding (relative density) [5] | Relative mapA Binding (relative density) [6] | Substance | height of the HPLC peak of unhydrolysed αs1-casein(1-17) after incubation with pepO-transformed HN001 (non-transformed: approximately 250 mAU) [7]
1 | 0.76 | 0.67 | 0.83 | 1.02 | 2.57 | 0.78 | mucus adhesion promoting (mapA) protein of Lactobacillus reuteri | 
2 |  |  |  |  |  |  | HN001 peptidase pepO | the major peak of unhydrolysed αs1-casein(1-17) had a height of approximately 150 mAU
